Laboratory results taken from US8519051B2, “Block copolymer for drug conjugates and pharmaceutical composition” (priority 2006, dated 2013).
Structures can show the parent of a compound that is named as a salt. Where two headings read alike, the source gives them in different places.

Key:
[1] = system: Human prostate cancer PC-3 cells; assay: drug efficacy study: tumor volume in PC-3-xenografted nude mice; assay type: in vivo, male nude mice (Balb nu/nu); settings: tail vein, every 4 days for a total of 3 times
Text: Human prostate cancer PC-3 cells subcutaneous transplanted to male nude mice were used as the model for evaluating drug efficacy.

[2] = MTD previously determined using normal healthy mice; assay type: in vivo
Protocol: (§1) Male nude mice (Balb nu/nu, 5 weeks old) were purchased from Charles River Laboratories Japan, Inc., and human prostate cancer PC-3 cells were purchased from the Human Health Sciences Foundation Resources Bank. PC-3 cells that had been subcultured in a CO2 incubator were suspended in physiological saline for injection (Otsuka Pharmaceutical Co., Ltd.), and were subcutaneously injected into the back of the nude mice to a cell count of 2×10^6/50 μl per animal. Then, after keeping the nude mice for about 2 weeks, the administration of the drug was started when the mean of tumor volume reached about 50 mm^3.

in vivo = settings: rat, 1 mg/kg
Protocol: Two compounds, i.e., the conjugate (13 DOX) obtained in Example 5a and MeO-PEG-pAsp (Hyd-DOX, Bn) (8 DOX) (Example 5b) prepared in method pursuant to Example 5a and having a different amount bound of DOX were used. An amount between 10-20 mg of each polymer was weighed accurately into a sample vial, to which 1 ml of dichloromethane was added to completely dissolve the polymer. Then, under the stream of nitrogen, the solvent was evaporated to prepare the polymer in the film form. Under reduced pressure, it was further dried at room temperature for 1 hour, and then 20 mM sodium phosphate buffer (pH 7.4)/5%(w/v) glucose was added to a polymer concentration of 10 mg/ml to hydrate the polymer film at 4° C. After stirring overnight at 4° C., it was subjected to ultrasonic treatment in ice chilled water for 10 minutes using the Biodisruptor (Nihonseiki Kaisha Ltd., High Power Unit). Subsequently, it was filtered with a 0.22 μm filter (Millipore, Millex™ GP PES) to prepare a micelle of the filtrate, which was used in the subsequent experiment.
To male Wistar rats (Charles River Laboratories Japan, Inc., 6-7 weeks old) under ether anesthesia, the above two micelles were administered into the tail vein under the following condition (n=3). Heparin-coated syringes were used to collect blood, and after centrifuging the blood drawn at 4° C., plasma was collected and stored at −30° C. until use.
Dose: 1 mg/kg in terms of the amount of DOX
Blood drawing timing: 5 minutes, 1, 3, 6, 9, 24, 48 hours after administration
Amount of blood drawn: 0.2-0.25 ml each time (from the jugular vein)
To 50 μl of rat plasma collected, 100 μl of acetonitrile and 50 μl of 0.4 N HCl were added in this order to make a total of 200 μl. After stirring, it was allowed to stand at room temperature for 1 hour. Subsequently, it was centrifuged (Funakoshi, Chibitan, 10,000 rpm, 10 minutes) at room temperature to collect 100 μl of the supernatant, to which 30 μl of 0.2 N NaOH, 20 μl of 1% Triton X-100, and 50 μl of 2 μg/ml of daunorubicin hydrochloride (Wako) (internal standard)/20 mM ammonium formate buffer (pH 3.0) was added in this order to make a total of 200 μl. The treatment sample liquid was filled into a HPLC sample vial, and subjected to HPLC analysis to determine the DOX concentration in the plasma.
To 50 μl of rat plasma collected, 100 μl of acetonitrile was added, centrifuged (Funakoshi, Chibitan, 10,000 rpm, 10 minutes) at room temperature to collect 50 μl of the supernatant, to which 100 μl of 2 μg/ml of daunorubicin hydrochloride (Wako) (internal standard)/20 mM sodium phosphate buffer (pH 7.4) was added. The treatment sample liquid was filled into a HPLC sample vial, and subjected to HPLC analysis to determine the DOX concentration in the plasma.
Using the values of the above (a) and (b), the concentration of polymer-conjugated DOX was calculated based on the following equation: (Polymer-conjugated DOX concentration)=(total DOX concentration)−(free DOX concentration) 4) Result of Determination of Concentration Change with Time in the Plasma
An amount between 10-20 mg each of 4 different polymers (8, 15, 20, and 39 DOX) was weighed accurately into a sample vial, to which 1 ml of dichloromethane was added to completely dissolve the polymer. Then, under the stream of nitrogen, the solvent was evaporated to prepare the polymer in the film form. Under reduced pressure, it was further dried at room temperature for 1 hour, and then 20 mM sodium phosphate buffer (pH 7.4)/5%(w/v) glucose was added to a polymer concentration of 10 mg/ml to hydrate the polymer film at 4° C. After stirring overnight at 4° C., it was subjected to ultrasonic treatment in ice chilled water for 10 minutes using the Biodisruptor (Nihonseiki Kaisha Ltd., High Power Unit). Subsequently, it was filtered with a 0.22 μm filter (Millipore, Millex™ GP PES) to prepare polymeric micelles of the filtrate, which were used in the subsequent experiment.

[3] = side effects: changes in body weight of PC-3-xenografted nude mice; settings: tail vein, every 4 days for a total of 3 times
Protocol: as §1

[4] = study on pH-dependency of drug release from polymeric micelles; assay type: physicochemical; settings: 37° C.
Protocol: To 950 μl of 20 mM ammonium formate buffer (pH 3), sodium acetate buffer (pH 5), or sodium phosphate buffer (pH 7.4) previously heated to 37° C., 50 μl of the polymeric micelles prepared in the above method were added to initiate a drug release experiment. At predetermined timing, 50 μl of the sample was collected, and instead the liquid amount was replenished with the same buffer, The free DOX concentration in the collected sample was determined by HPLC according to the above-mentioned method.

Compound	AUC (in vivo; iv) [ng·h/mL]	retention in the plasma (in words) (in vivo; iv)	further results
COc1cccc2c1C(=O)c1c(O)c3c(c(O)c1C2=O)C[C@@](O)(C(=O)CO)C[C@@H]3O[C@H]1C[C@H](N)[C@H](O)[C@H](C)O1 [DOX solution (Comp. Ex. 12), doxorubicin hydrochloride]	–	–	T/C at the maximum (tumor volume of drug group to control group) ([1]; 5 mg/kg (MTD)): 0.4; MTD ([2]; mouse, in vivo, read-out: MTD): 5 mg/kg
COc1cccc2c1C(=O)c1c(O)c3c(c(O)c1C2=O)C[C@@](O)(C(=O)CO)C[C@@H]3O[C@H]1C[C@H](N)[C@@H](O)[C@H](C)O1 [epirubicin hydrochloride]	–	–	AUC (in vivo; male, Wistar): 40 ng·h/mL
MeO-PEG-pAsp (Hyd-DOX) [8DOX (Comp. Ex. 5)]	19100	relatively persistent retention in the plasma	–
MeO-PEG-pAsp (Hyd-DOX) [15DOX (Comp. Ex. 6)]	7600	relatively persistent retention in the plasma	–
MeO-PEG-pAsp (Hyd-DOX) [20DOX (Comp. Ex. 6)]	3100	rapidly disappear	–
MeO-PEG-pAsp (Hyd-DOX) [39DOX (Comp. Ex. 6)]	1200	rapidly disappear	–
MeO-PEG-pAsp (Hyd-DOX) [Comparative Example 6]	–	–	T/C at the maximum (tumor volume of drug group to control group) ([1]; 15 mg/kg (MTD)): 0.42; MTD [2]: 15 mg/kg; decrease in body weight (maximum) ([3]; 15 mg/kg (MTD)): 13%
MeO-PEG-pAsp (Hyd-DOX, Bn) [8DOX (Example 5b)]	149000	persistent plasma concentration	concentration of free DOX relative to the total DOX concentration in plasma (in vivo; iv): about 1/100
MeO-PEG-pAsp (Hyd-DOX, Bn) [13DOX (Example 5a)]	238000	–	T/C at the maximum (tumor volume of drug group to control group) ([1]; 11 mg/kg (MTD×⅔)): 0.32; release of DOX from the micelles ([4]; pH 3, 20 mM ammonium formate buffer): rapidly released; release of DOX from the micelles ([4]; pH 5 to 7.4 (sodium acetate / sodium phosphate buffer)): the release rate decreased; decrease in body weight (maximum) ([3]; 11 mg/kg (MTD×⅔)): 15%
MeO-PEG-pAsp (Hyd-DOX, C4-Phenyl) [6DOX (Example 7)]	156000	–	–
MeO-PEG-pAsp (Hyd-DOX, C8) [12DOX (Example 3)]	90700	–	–
MeO-PEG-pAsp (Hyd-DOX, NH4) [12DOX (Comp. Ex. 7)]	69500	–	AUC relative to that of Example 5 (in vivo; iv): about ¼; increase in AUC compared to the DOX solution (in vivo; iv): about 500 fold
MeO-PEG-pAsp (amide-DOX) [13DOX (Amide) (Comp. Ex. 9)]	57900	–	AUC relative to that of Example 5 (in vivo; iv): about ¼; increase in AUC compared to the DOX solution (in vivo; iv): about 500 fold
